{"source": "patent US12472269B2", "about": "“Liver-specific inducible promoters and methods of use thereof” (ASKBIO INC., priority 2019, dated 2025)", "molecules": {"B1": {"name": "PB1-MinTK: promoter: single mouse PBREM element and MinTK minimal promoter, SEQ ID NO: 7 (nucleic acid)", "DNA": "TCTGTACTTTCCTGACCTTGGCACAGTGCCACCATCAACTTGCCTGACACCGATCCGGCCCCGCCCAGCGTCTTGTCATTGGCGAATTCGAACACGCAGATGCAGTCGGGGCGGCGCGGTCCGAGGTCCACTTCGCATATTAAGGTGACGCGTGTGGCCTCGAACACCGAGCGACCCTGCAGCGACCCGCTTAACAGCGTCAACAGCGTGCCGCAGATCTCGAGGAGCTTGGCGAGATTTTCAGGAGCTAAGGAAGCTAAAC", "modifications": "PB1-MinTK"}}, "key": {"[1]": {"tested_on": "Huh7 and ARE primary cells", "test": "Effect of AAV ITRs: pAAV constructs transfected into Huh7 and ARE primary cells, compared with pGL4.10", "type": "cell-based, human", "conditions": "mean of 3 biological replicates", "from_the_text": "Following from Example 3, it was decided to take PB1-MinTK and PB1-2-MinTk forward for in vivo studies. To facilitate this the two aforementioned constructs were cloned into pAAV vector (Takara, Clontech) to allow for the preparation of AAV viruses. The inserts where cloned using restriction digest of the pAAV plasmid and PCR amplification of the original pGL4.10 constructs.\nWe investigated the effect of the Inverted Terminal Repeats (ITRs) on the activity of the promoters. This was done as we have observed interference from the AAV ITRs in other projects. To this end, the pAAV-PB1-MinTk and pAAV-PB1-2-MinTk were transfected into Huh7 and ARE primary cells as previously described and their activity assessed."}, "CD1 male mice": {"tested_on": "CD1 male mice", "test": "In vivo bioluminescence imaging of mice injected with AAV9 constructs, induction by phenobarbital", "experimental": "• Seed HEK 293-AAV cells in 15 cm plates. To be 70-80% confluent on the day of transfection • Final volume on each plate: 15 ml Day 2: Prepare Transfection Mix: • DNA mix/plate: pDG9 (Packaging plasmid for AAV9): 10.5 μg/pHGTI (Ad. Helper plasmid): 31.5 μg/Vector plasmid: 10.5 μg/Prepare in serum free DMEM/Optimem • Transfer mix/plate: PEI: 125 μl/Prepare in serum free DMEM/Optimem • Add DNA mix into transfection mix. Mix and leave at room temperature for 15-20 mins. • Add 3 ml of transfection mix to each plate drop-wise and gently distribute. Incubate for 24 h. Day 3: • Replace media with 15 ml DMEM supplemented with P/S and 2% FCS. Leave for 48 h. Day 5: • Collect supernatant and pool in 50 ml tubes, 25 ml each tube. Store at −20° C. • Collect cells: Add 5 ml of PBS to each plate→scrape and collect in 50 ml tubes. • To wash plates, add another 1 ml of PBS and collect. • Spin at 1500 rpm for 5 mins. • Remove supernatant and resuspend pelleted cells in 1 ml/plate TD lysis buffer→pool • Store at −80′C. Endonuclease Treatment Cells: • Freeze and thaw pellets 5 times→˜20 mins at 37° C. then ˜20 mins in dry ice (or −80° C.). • Add 25 μl/ml cells of 20% Deoxycholate (or 50 μl/ml of 10% Deoxycholate). • Add 8 μl/ml cells of benzonase. • Incubate at 37° C. for 30 mins. • Spin at 4 Krpm for 30 mins. • Filter supernatant using […] filters. • Store at 4° C. for up to 24 h. Supernatant: • Add 2.5 μl/25 ml supernatant of benzonase. • Add 50 μl/25 ml supernatant of MgSO4. • Incubate at 37° C. for 30 mins. • Spin at 4 Krpm for 30 mins. • Filter supernatant using […] filters. • Store at 4′C for up to 24 h. Hplc Purification • Place both lines in 20% ETOH→template→system wash • Put line A in PBS and line B in Glycine→template→system wash • Place the column in the machine→manual run→flowrate: 5 ml/min→Run for 25 ml or until the UV line is flat. • Prepare FACS tubes (10 for cells and more for supernatant): add 30 μl/tube Tris→put in the machine to collect vectors. • Place the waste lines in a separate tube to be able to run them again through the column. • Run samples (flowrate low, depending on how fast the system and how concentrated the sample is; for cells it is slower, for supernatant it is higher). • After running the waste through the column, wash with PBS→flowrate: 5 ml/min until the UV line is flat. • Set→fraction size: 1 ml; Flowrate: 1 ml/min; concentration % B: 100%→run. • Start collecting: Look for the peak. The peak indicates vector purification. Mark the tubes containing these vectors. • Save programme before exiting. • Wash with PBS→75 ml, 5 ml/min • Wash with Na3PO4 (to store the column in)→75 ml, 5 ml/min • Remove column and store at 4° C. • Wash the machine with PBS→template→system wash • Wash the machine with 20% ETOH→template→system wash • Put both lines in 20% ETOH and shut down • Add 2 L of PBS into a big bucket and put the Dialysis cassette (Side-A-Lyzer; Thermo scientific) to prime. • Collect the vectors from the marked FACS tubes using a syringe and needle and add into the dialysis cassette→remove excess air from the membrane, carefully place the rubber on top of the cassette and let it float in the PBS-containing bucket→leave over night at room temperature on a slow rotating rotor. Next Day: • Prime membrane by adding 5 ml PBS onto a centrifugal filter (Amico Ultra 15; MERCK)→spin for 5 mins at 4 Krpm • Remove excess PBS from inside the membrane. • Take vectors out from the cassette and load onto the membrane→spin for 5 mins at 4 Krpm • Wash the membrane with the vectors inside few times, then collect into 2 ml centrifuge tube filter 0.22 μM (Spin-X; COSTAR) • Spin for 3 mins at 13 Krpm. • Remove filter and aliquot: 1×100 μl (for injection), the rest in 10-2 μl aliquots. • Store in −80° C. • Virus quantification was performed using qRT-PCR with primers and probes for the luciferase gene. Mice Experiment […]"}, "[2]": {"conditions": "AAV9, phenobarbital intraperitoneally"}}}
{"molecule": "B1", "values": [{"measurement": "induction of luciferase expression across pGL4.10 and pAAV vectors and cell types", "setting": "[1]", "value": "comparable across vectors and cell types"}, {"measurement": "luciferase expression before induction", "setting": "CD1 male mice; 0 hrs", "value": "no expression of the luciferase gene"}, {"measurement": "time at which induction is complete", "setting": "CD1 male mice; [2]", "value": 24, "unit": "h"}, {"measurement": "time of maximal activity after induction", "setting": "CD1 male mice; [2]", "value": 9, "unit": "h"}, {"measurement": "tissue distribution of luciferase expression", "setting": "CD1 male mice; AAV9 via tail vein", "value": "confined to the liver"}]}
